Laboratory results taken from publication PMC11840411, “GS2 cooperates with IPA1 to control panicle architecture” (The New Phytologist, 2025).
Changes are numbered by the printed parent chain.

T1: GST-IPA1 fusion protein (rice (Oryza sativa), UniProt Q7EXZ2 1-417)
T1 construct: IPA1/OsSPL14 of rice, full-length CDS in pGEX-4T-1; source: E. coli BL21 (DE3), purified on glutathione beads
T1 sequence (looked up): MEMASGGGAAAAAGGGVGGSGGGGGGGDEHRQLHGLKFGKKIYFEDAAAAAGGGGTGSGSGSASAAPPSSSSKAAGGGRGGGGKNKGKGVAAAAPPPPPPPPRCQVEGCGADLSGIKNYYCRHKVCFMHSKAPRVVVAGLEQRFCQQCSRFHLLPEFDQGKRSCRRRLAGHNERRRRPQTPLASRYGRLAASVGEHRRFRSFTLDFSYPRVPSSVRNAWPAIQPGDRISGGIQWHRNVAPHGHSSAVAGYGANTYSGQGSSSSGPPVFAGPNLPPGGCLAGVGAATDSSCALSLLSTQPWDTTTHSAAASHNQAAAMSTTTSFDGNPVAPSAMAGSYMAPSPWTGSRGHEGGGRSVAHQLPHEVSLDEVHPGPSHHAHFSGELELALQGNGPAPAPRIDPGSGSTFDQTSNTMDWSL

T2: GS2 (OsGRF4) (Oryza sativa (rice), ZH11?, UniProt Q6ZIK5 1-394)
T2 sequence: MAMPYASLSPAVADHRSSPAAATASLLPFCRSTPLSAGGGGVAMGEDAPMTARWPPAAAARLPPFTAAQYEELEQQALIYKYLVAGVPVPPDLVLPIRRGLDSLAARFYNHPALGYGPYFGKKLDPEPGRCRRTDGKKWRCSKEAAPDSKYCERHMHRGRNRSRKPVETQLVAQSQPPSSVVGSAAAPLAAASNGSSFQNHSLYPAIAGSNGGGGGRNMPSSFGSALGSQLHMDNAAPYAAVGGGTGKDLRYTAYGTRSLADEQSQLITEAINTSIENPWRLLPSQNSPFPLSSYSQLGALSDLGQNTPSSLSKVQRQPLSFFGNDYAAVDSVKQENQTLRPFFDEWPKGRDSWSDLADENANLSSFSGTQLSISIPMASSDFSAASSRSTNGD

T3: GS2TM (miR396 target-site mutant) (Oryza sativa (rice), GS2TM plants?, UniProt Q6ZIK5 1-394, S163K)
T3 sequence: T2 sequence with S163K

B1: His-GS2 fusion protein (natural protein, rice (Oryza sativa), UniProt Q6ZIK5 1-394, looked up)
chain: T2 sequence
notes: GS2/OsGRF4 of rice, full-length CDS in pET28a
B2: GCCA core motif probe (GS2-EMSA) (dsDNA)
DNA 1: CCTGTCAAAGCCGGCCATCGCTGCCGGCTG
DNA 2: CAGCCGGCAGCGATGGCCGGCTTTGACAGG

Legend:
GST-IPA1 fusion protein = target: T1, GST-IPA1 fusion protein; assay: pull-down; about 0.5 μg GST-IPA1 bound to GST beads at 4°C for 2 h, the same amount of His-GS2 incubated for 2 h; 150 mM KCl, 50 mM Tris-HCl pH 7.5, 0.01% NP-40; detected with His and GST antibodies; details: both partners purified
GS2 (OsGRF4) = target: T2, GS2 (OsGRF4); assay: EMSA; EMSA: 20 min at 25 C, 4% acrylamide gel, biotin probes (Beyotime GS008/GS009); buffer, salt and pH not stated; details: protein: recombinant; tags: GST; label: biotin; blunt
[1] = target: T3, GS2TM (miR396 target-site mutant); assay: as above; details: protein: recombinant; tags: GST; label: biotin; blunt

Row | Binder | binding result (GST-IPA1 fusion protein) | binding result (GS2 (OsGRF4)) | binding result [1]
1 | B1 | binds | – | –
2 | B2 | – | binds | binds
